From publication PMC2721907 (Nature structural & molecular biology, 2009) come the findings set out here.

Square brackets hold non-standard residues; d marks the D form. Ends that are not written are not given here. F2Pmab = 2-amino-4,4-difluoro-3-methyl-4-phosphobutanoic acid (p-Thr mimetic); pT = C[C@@H](OP(=O)(O)O)[C@H](N)C(=O)O

Chain of Plk2 PBD (purified recombinant) (Q9NYY3 whole entry): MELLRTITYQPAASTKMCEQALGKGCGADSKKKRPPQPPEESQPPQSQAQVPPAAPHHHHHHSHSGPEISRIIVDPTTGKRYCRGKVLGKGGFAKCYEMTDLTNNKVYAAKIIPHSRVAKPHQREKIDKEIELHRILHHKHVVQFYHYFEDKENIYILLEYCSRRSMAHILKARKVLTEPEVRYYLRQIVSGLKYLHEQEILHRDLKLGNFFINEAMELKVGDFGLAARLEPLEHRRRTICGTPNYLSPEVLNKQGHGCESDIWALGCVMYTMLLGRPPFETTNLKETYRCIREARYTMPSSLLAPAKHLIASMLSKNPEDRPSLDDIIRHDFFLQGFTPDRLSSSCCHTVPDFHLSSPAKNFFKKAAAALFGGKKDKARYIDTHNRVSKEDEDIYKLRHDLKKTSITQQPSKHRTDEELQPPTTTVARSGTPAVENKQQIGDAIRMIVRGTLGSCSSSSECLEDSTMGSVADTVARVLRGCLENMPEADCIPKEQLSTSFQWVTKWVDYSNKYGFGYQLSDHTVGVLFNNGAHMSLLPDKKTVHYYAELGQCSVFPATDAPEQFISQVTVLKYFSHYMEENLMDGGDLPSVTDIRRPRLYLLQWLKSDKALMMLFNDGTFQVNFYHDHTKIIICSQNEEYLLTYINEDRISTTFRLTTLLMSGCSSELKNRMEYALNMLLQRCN

In one assay the target is Plk1 (Homo sapiens, UniProt P53350). The experiment in a line: Peptide pull-down of Plk1 from HeLa lysates with bead-immobilized peptides.
Chain of Plk1 (P53350 367-603 limits assumed): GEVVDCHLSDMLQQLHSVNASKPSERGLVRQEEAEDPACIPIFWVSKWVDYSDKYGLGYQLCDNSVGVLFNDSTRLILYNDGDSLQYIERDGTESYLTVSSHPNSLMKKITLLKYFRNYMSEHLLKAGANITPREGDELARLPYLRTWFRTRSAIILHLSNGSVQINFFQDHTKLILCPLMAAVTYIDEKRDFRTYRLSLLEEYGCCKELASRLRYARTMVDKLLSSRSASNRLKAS
Consider PLHA-Pmab (PLHAT), for which the “Plk1 binding in peptide pull-down (in words)” value is reported as “abolished the Plk1 binding”. The same measure, in the same setting: the entry for “PLHS-F2Pmab-A: 6-mer p-T78 mimetic peptide containing 2-amino-4,4-difluoro-3-methyl-4-phosphobutanoic acid (F2Pmab) (PLHS[F2Pmab]A-NH2)” is “precipitated Plk1”.

The next assay concerns the target Plk2 PBD (purified recombinant). The experiment in a line: ITC. Background: Isothermal titration calorimetry measures the heat released or taken up as one component is titrated into another.
Turning to “PLQSpT, N-terminally acetylated (peptide)”, the calorimetric initial heat of interaction is -1.1 kcal/mol. “MQSpTPL, N-terminally acetylated (peptide)”: the calorimetric initial heat of interaction is -1.68 kcal/mol.

In the next assay the target is Plk1 PBD (purified recombinant) (human). The experiment in a line: ITC.
Take “MQSpTPL, N-terminally acetylated (peptide)”: the dH was -10 kcal/mol.

As to “LHSpTA, N-terminally acetylated (peptide)”, the dH was -9.9 kcal/mol. In general, Kd refers to the constant that tells how readily two partners part at equilibrium. Take Ac-PLHSpT (peptide): the Kd came out at 445 nM. Take Ac-PLHS[pT]A [PLHSpTA, N-terminally acetylated]: the Kd stood at 262 nM and the dH was -11.6 kcal/mol. On the same counts, the results for Ac-LHS[pT] [LHSpT, N-terminally acetylated] are 22100 nM and -6.29 kcal/mol. For Ac-HS[pT]A [HSpTA, N-terminally acetylated], the Kd was 19500 nM and the dH is -3.82 kcal/mol. For Ac-LHS[pT]AI [LHSpTAI, N-terminally acetylated], the Kd was found to be 247 nM and the dH was -11.3 kcal/mol.
